Measurements taken from patent publication US12186374B2 (Sanofi-Aventis Deutschland GmbH, priority 2014, dated 2025).

Columns and labels:
[1] = test system: patients with Type 2 diabetes mellitus (T2DM); experiment: HbA1c change from baseline to Week 30 (Example 2, on top of metformin); assay type: in vivo, human; conditions: for HbA1c change from baseline to Week 30, LS Mean (SE): MMRM
Method: (§1) For the eligibility and efficacy assessments of the study, HbA1c is measured by a certified level I “National Glycohemoglobin Standardization Program” (NGSP) central laboratory.
Randomization was stratified by values of HbA1c at visit 4 (<8%, […]) and second oral anti-diabetic (OAD) use at screening (Yes, No).
Diagnosis and criteria for inclusion: Inclusion criteria: Patients with type 2 diabetes mellitus (T2DM) diagnosed for at least 1 year before the screening visit, treated for at least 3 months prior to Visit 1 with metformin alone or metformin and a second oral anti-diabetic treatment that could be a SU, a glinide, a SGLT-2 inhibitor, or a DPP-4 inhibitor, and who were not adequately controlled with this treatment.
(§2) Efficacy analysis was based on modified intent-to-treat (mITT) population using efficacy assessments collected during the study, including those obtained after IMP discontinuation or introduction of rescue therapy. The mITT population consisted of all randomized patients who had both a baseline assessment and at least one post-baseline assessment of any primary or secondary efficacy variables.
(§3) The primary efficacy endpoint was analyzed using a mixed-effect model with repeated measures (MMRM). The MMRM model included the treatment groups, randomization strata, visit, treatment-by-visit interaction, and country as fixed-effect factors, and the baseline HbA1c-by-visit interaction as covariate.

[2] = test system: patients with T2DM; experiment: HbA1c change from baseline to Week 30 (Example 3, with or without metformin); assay type: in vivo, human
Method: as §1
Methodology: This was an open-label, 1:1 randomized, active-controlled, 2-arm, 30-week treatment duration, parallel-group multinational and multicenter study. The randomization was stratified by value of HbA1cat Visit 5 (Week −1) (<8%, ≥8%) and metformin use at screening (Y, N).
Diagnosis and criteria for inclusion: Inclusion criteria: Patients with type 2 diabetes mellitus diagnosed for at least 1 year and inadequately controlled on their current antidiabetic treatment. Patients had to be treated with basal insulin for at least 6 months at a stable daily dose of 15 to 40 U, alone or combined with 1 or 2 oral anti-diabetic drugs ((metformin, an SU, a glinide, a DPP-4 inhibitor, or a SGLT-2 inhibitor) at a stable dose for at least 3 months. Key exclusion criteria for randomization (at the end of the run-in phase): HbA1c<7% or >10% at Visit 5 (week −1); mean fasting SMPG >140 mg/dL (7.8 mmol/L) for the 7 days before the randomization Visit (Visit 6); average insulin glargine daily dose <20 U or >50 U calculated for the last 3 days before Visit 6.
as §2, with “assessment” for “assessments”
as §3

[3] = test system: patients with T2DM; experiment: Fasting plasma glucose change from baseline to Week 30 (Example 3); assay type: in vivo, human
Method: FPG is measured at a central laboratory. At V5 and V21, FPG will be part of the standardized meal test.
Similar MMRM method or analysis of covariance (ANCOVA) was applied on continuous secondary efficacy endpoints and the Cochran-Mantei-Haenszel method stratified by randomization strata was applied for categorical efficacy endpoints.

[4] = test system: patients with T2DM; experiment: Patients requiring rescue therapy (Example 3); assay type: in vivo, human
Text: Routine fasting SMPG and central lab alerts on FPG (and HbA1c after Week 12) were set up to ensure that glycemic parameters remained under predefined threshold values. If values were above predefined thresholds, and no explanations were found, or appropriate actions failed, or a dose >60 U was necessary to decrease FPG and/or HbA1c below the threshold values, rescue therapy was to be introduced along with IMP and metformin (if taken). Newly initiated anti-diabetic medications, or an increase from baseline in background metformin dose were considered as a rescue therapy.

[5] = test system: patients with T2DM; experiment: Patient disposition / treatment discontinuation (Example 3); assay type: in vivo; conditions: Randomized population; percentages of patients randomized
Text: The discrepancy between the strata assigned by IVRS/IWRS and the information reported on electronic Case Report Form (eCRF) will be listed for all randomized patients, • Patients who have completed the 30-week treatment period, • Patients who discontinued the IMP during the 30-week treatment period, and the reasons for treatment discontinuation.

[6] = test system: patients with Type 2 diabetes mellitus (T2DM); experiment: Symptomatic hypoglycemia (Example 2)
[7] = test system: patients with Type 2 diabetes mellitus (T2DM); experiment: Pancreatic events adjudicated by PSAC (Example 2)
[8] = test system: patients with T2DM; experiment: Major cardiovascular events adjudicated by CAC (Example 3)
[9] = on-treatment period, Safety population

Substance: Gly(A21)-Arg(B31)-Arg(B32)-human insulin [Insulin Glargine]
- HbA1c change from baseline to Week 30, LS Mean (SE) ([1]; mITT population): −1.34 (0.039) %
- HbA1c change from baseline to Week 30, LS Mean (SE) ([1]; mITT population, listed as insulin glargine): −1.34%
- HbA1c (%) Week 30 Mean (SD) ([1]; Week 30, mITT population): 6.81 (0.76) %
- HbA1c (%) Week 30 Median ([1]; Week 30, mITT population): 6.70%
- HbA1c (%) Week 30 Mean (SD) ([1]; Week 30, mITT population, listed as insulin glargine): 6.8%
- HbA1c (%) Baseline Mean (SD) ([1]; baseline, mITT population): 8.08 (0.69) %
- HbA1c (%) Baseline Median ([1]; baseline, mITT population): 8.00%
- Mean HbA1c level at Week 30 ([2]; Example 3): 7.5%
- HbA1c change from baseline to Week 30, LS Mean (SE) ([2]; MMRM, mITT population): −0.62 (0.055) %
- HbA1c at Week 30, Mean (SD) ([2]; mITT population): 7.48 (0.91) %
- HbA1c at Week 30, Median ([2]; mITT population): 7.40%
- FPG, LS mean change from baseline to Week 30 ([3]; Example 3): -0.46 mmol/L
- Fasting plasma glucose change from baseline to Week 30, LS Mean ([3]; MMRM, mITT population): -0.46 mmol/L
- Fasting plasma glucose at Week 30, Mean ([3]; mITT population): 6.69 mmol/L
- Fasting plasma glucose at Week 30, Median ([3]; mITT population): 6.30 mmol/L
- Patients who received rescue therapy, % [4]: 6.0%
- Patients who received rescue therapy, number [4]: 22 patients
- Reason for study treatment discontinuation: Adverse event [5]: 3 (0.8%)
- Status at last study contact: Dead [5]: 2 (0.5%)
- Documented (≤70 mg/dL) symptomatic hypoglycemia event rate per patient-year ([6]; Example 2): 1.22 per patient-year
- Events of severe symptomatic hypoglycemia ([6]; Example 2): 1 event
- Incidence of documented (≤70 mg/dL) symptomatic hypoglycemia ([6]; Example 2): 23.6%
- Number of symptomatic hypoglycemia events ([6]; Example 2): 338 events
- Patients reporting symptomatic hypoglycemia (protocol definition) ([6]; Example 2): 25.5%
- Symptomatic hypoglycemia events per patient-year ([6]; Example 2): 1.29 events per patient-year
- Documented symptomatic hypoglycemia (plasma glucose < 60 mg/dL [[…]]): Number of events [6, 9]: 75
- Documented symptomatic hypoglycemia (plasma glucose < 60 mg/dL [[…]]): Number of events per patient year [6, 9]: 0.29 per patient year
- Documented symptomatic hypoglycemia (plasma glucose < 60 mg/dL [[…]]): Number of patients with events [6, 9]: 50 (10.7%) n (%)
- Documented symptomatic hypoglycemia (plasma glucose < 60 mg/dL [[…]]): Number of patients with events per patient year [6, 9]: 0.19 per patient year
- Documented symptomatic hypoglycemia (plasma glucose ≤ 70 mg/dL [[…]]): Number of events [6, 9]: 321
- Documented symptomatic hypoglycemia (plasma glucose ≤ 70 mg/dL [[…]]): Number of events per patient year [6, 9]: 1.22 per patient year
- Documented symptomatic hypoglycemia (plasma glucose ≤ 70 mg/dL [[…]]): Number of patients with events [6, 9]: 110 (23.6%) n (%)
- Documented symptomatic hypoglycemia (plasma glucose ≤ 70 mg/dL [[…]]): Number of patients with events per patient year [6, 9]: 0.42 per patient year
- Probable symptomatic hypoglycemia: Number of events [6, 9]: 16
- Probable symptomatic hypoglycemia: Number of events per patient year [6, 9]: 0.06 per patient year
- Probable symptomatic hypoglycemia: Number of patients with events [6, 9]: 12 (2.6%) n (%)
- Probable symptomatic hypoglycemia: Number of patients with events per patient year [6, 9]: 0.05 per patient year
- Severe symptomatic hypoglycemia: Number of events [6, 9]: 1
- Severe symptomatic hypoglycemia: Number of events per patient year [6, 9]: <0.01 per patient year
- Severe symptomatic hypoglycemia: Number of patients with events [6, 9]: 1 (0.2%) n (%)
- Severe symptomatic hypoglycemia: Number of patients with events per patient year [6, 9]: <0.01 per patient year
- Symptomatic hypoglycemia: Number of events [6, 9]: 338
- Symptomatic hypoglycemia: Number of events per patient year [6, 9]: 1.29 per patient year
- Symptomatic hypoglycemia: Number of patients with events [6, 9]: 119 (25.5%) n (%)
- Symptomatic hypoglycemia: Number of patients with events per patient year [6, 9]: 0.45 per patient year
- Cases of pancreatic cancer ([7]; Example 2): One
- Pancreatic events positively adjudicated by PSAC: Acute on chronic pancreatitis [7, 9]: 0 Number (%)
- Pancreatic events positively adjudicated by PSAC: Acute pancreatitis [7, 9]: 0 Number (%)
- Pancreatic events positively adjudicated by PSAC: Chronic pancreatitis [7, 9]: 0 Number (%)
- Pancreatic events positively adjudicated by PSAC: Unknown pancreatitis [7, 9]: 0 Number (%)
- Patients with pancreatic events positively adjudicated by PSAC: Any with “Yes” for pancreatitis by PSAC [7, 9]: 0 Number (%)
- Events adjudicated as major cardiovascular events by CAC, % of patients ([8]; Example 3): 1.1%
- Events adjudicated as major cardiovascular events by CAC, number of patients ([8]; Example 3): 4 patients
- % of patients with events adjudicated as major cardiovascular events by CAC: Any [8, 9]: 1.1%
- % of patients with events adjudicated as major cardiovascular events by CAC: Cardiovascular death [8, 9]: 0.3%
- % of patients with events adjudicated as major cardiovascular events by CAC: Coronary revascularization procedure [8, 9]: 0.8%
- % of patients with events adjudicated as major cardiovascular events by CAC: Hospitalization for heart failure [8, 9]: 0.3%
- Number of patients with events adjudicated as major cardiovascular events by CAC: Any [8, 9]: 4
- Number of patients with events adjudicated as major cardiovascular events by CAC: Cardiovascular death [8, 9]: 1
- Number of patients with events adjudicated as major cardiovascular events by CAC: Coronary revascularization procedure [8, 9]: 3
- Number of patients with events adjudicated as major cardiovascular events by CAC: Hospitalization for heart failure [8, 9]: 1
- Number of patients with events adjudicated as major cardiovascular events by CAC: Hospitalization for unstable angina [8, 9]: 0
- Number of patients with events adjudicated as major cardiovascular events by CAC: Non-fatal myocardial infarction [8, 9]: 0
- Number of patients with events adjudicated as major cardiovascular events by CAC: Non-fatal stroke [8, 9]: 0
